Measured values taken from patent publication WO2021244601A1 (dated 2021).

B1: CA530 (antibody)
heavy: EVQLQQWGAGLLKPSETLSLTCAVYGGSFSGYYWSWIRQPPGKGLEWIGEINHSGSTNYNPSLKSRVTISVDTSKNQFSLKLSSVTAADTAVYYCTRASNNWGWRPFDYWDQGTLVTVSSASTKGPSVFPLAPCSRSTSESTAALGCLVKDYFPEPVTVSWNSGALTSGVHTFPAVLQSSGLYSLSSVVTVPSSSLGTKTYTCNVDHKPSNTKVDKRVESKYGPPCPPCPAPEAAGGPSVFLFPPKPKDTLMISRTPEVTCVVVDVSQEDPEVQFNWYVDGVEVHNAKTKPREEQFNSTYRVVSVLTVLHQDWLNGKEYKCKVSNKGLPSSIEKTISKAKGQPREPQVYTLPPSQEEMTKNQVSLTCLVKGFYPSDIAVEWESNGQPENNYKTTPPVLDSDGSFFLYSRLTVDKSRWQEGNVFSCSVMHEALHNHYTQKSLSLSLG
light: DIVMTQTPLSLPVTLGQPASISCRSSQSLVHSDGNTYLNWFQQRPGQSPRRLIYKVSNRDSGVPDRFSGSGSGTDFTLKISRVEAEDVGVYYCMQGTHWPRTFGQGTKVEIKRTVAAPSVFIFPPSDEQLKSGTASVVCLLNNFYPREAKVQWKVDNALQSGNSQESVTEQDSKDSTYSLSSTLTLSKADYEKHKVYACEVTHQGLSSPVTKSFNRGEC
notes: copies: 2 + 2
B2: IgG4 wild-type control antibody (antibody)
heavy: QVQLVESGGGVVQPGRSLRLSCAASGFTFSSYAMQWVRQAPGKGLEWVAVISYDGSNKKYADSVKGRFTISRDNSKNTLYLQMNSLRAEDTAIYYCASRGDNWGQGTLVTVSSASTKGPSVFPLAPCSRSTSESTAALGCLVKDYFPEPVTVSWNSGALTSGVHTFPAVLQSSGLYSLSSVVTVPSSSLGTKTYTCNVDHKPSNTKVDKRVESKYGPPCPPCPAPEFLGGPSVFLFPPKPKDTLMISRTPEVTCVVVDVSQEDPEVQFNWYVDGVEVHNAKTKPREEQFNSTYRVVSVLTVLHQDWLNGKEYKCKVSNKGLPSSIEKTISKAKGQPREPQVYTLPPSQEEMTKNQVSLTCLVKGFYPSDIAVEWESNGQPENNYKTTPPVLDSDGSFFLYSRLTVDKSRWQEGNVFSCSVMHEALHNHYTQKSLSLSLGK
light: DIVMTQSPSSLSASVGDRVTITCRASQGIRNDLGWYQQKPGKAPKLLIYAASSLQSGVPSRFSGSGSGTDFTLTISSLQPEDFATYYCLQDYNYPRTFGQGTKVEIKRTVAAPSVFIFPPSDEQLKSGTASVVCLLNNFYPREAKVQWKVDNALQSGNSQESVTEQDSKDSTYSLSSTLTLSKADYEKHKVYACEVTHQGLSSPVTKSFNRGEC
B3: CA304 (antibody, V domains shown)
VH: EVQLQQWGAGLLKPSETLSLTCAVYGGSFSGYYWSWIRQPPGKGLEWIGEVNHSGSTNYNPSLKSRVTISVDTSKNQLSLKLNSVTAADTAVYYCARGNTMVRGVIIPFEYWDKGTLVTVSS
VL: DIVMTQTPLSLPVTLGQPASISCRSSQSLVHSDGNTYLNWFQQRPGQSPRRLIYKVSNRDSGVPDRFSGSGAGTDFTLKISRVEAEDVGVYYCTQATQFPFTFGPGTKVDIKR
B4: CA555 (antibody, V domains shown)
VH: B3 VH
VL: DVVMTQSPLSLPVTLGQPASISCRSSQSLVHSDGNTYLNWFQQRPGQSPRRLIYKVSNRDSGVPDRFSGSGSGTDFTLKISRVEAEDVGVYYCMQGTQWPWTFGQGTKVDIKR

Tests used:
[1] = biological target: T1, human CD64 (ACROBiosystems, catalog number FCA-H52H2) (human, UniProt P12314 16-288); test: BLI, OctetRED 96, antibody on FAB2G sensor
T1 construct: also called CD64 protein; human CD64 receptor
T1 sequence (P12314 16-288 limits assumed): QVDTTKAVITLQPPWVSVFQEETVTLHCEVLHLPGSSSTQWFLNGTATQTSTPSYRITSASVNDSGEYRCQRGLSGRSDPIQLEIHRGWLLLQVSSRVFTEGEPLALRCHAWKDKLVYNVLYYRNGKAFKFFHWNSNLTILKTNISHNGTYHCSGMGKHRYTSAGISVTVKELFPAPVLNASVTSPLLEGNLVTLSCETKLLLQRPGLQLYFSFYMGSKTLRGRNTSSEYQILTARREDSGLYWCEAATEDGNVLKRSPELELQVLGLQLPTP

[2] = biological target: S protein of Wuhan-Hu-1 on pseudovirus (SARS-CoV-2 Wuhan-Hu-1 strain, UniProt P0DTC2 14-1273); test: cell-based or functional assay
[3] = biological target: T1, human CD64 (ACROBiosystems, catalog …)
[4] = biological target: S protein of SARS-CoV-2 true virus, strain BetaCoV/Beijing/IMEBJ01/2020 (SARS-CoV-2 BetaCoV/Beijing/IMEBJ01/2020); test: cell-based or functional assay
[5] = biological target: Spike S1+S2 protein of Wuhan-Hu-1 (Yiqiao Shenzhou / SB, 40589-V08B1) (SARS-CoV-2 Wuhan-Hu-1 strain, UniProt P0DTC2 16-1213)

Binder | binding result [1] | IC50(nM), pseudovirus neutralisation on 293T-ACE2 cells (Luciferase RLU) [2] | Kd [3] | IC50, pseudovirus neutralisation (method as 3.15) [2] | IC50, neutralisation of true virus on Vero cells (plaques) [4] | IC50 [5]
B1 | no binding | 0.11 nM | – | – | – | –
B2 | – | – | 3.41 nM | – | – | –
B3 | – | 0.2 nM | – | 0.821 nM | 0.08 µg/mL | 0.176 nM
B4 | – | 0.98 nM | – | 0.328 nM | – | 0.187 nM
